Experimental data published in the supplement of paper PMC10065799, “High-throughput profiling of sequence recognition by tyrosine kinases and SH2 domains using bacterial peptide display” (eLife, 2023).

Columns and labels:
c-Src SH2 = experiment: SH2 binding enrichment of the phosphorylated peptide, bacterial display (enrichment ratio); higher = better substrate or ligand; peptides without Tyr show the background
Grb2 SH2 = Grb2 SH2 (UniProt P62993); experiment: as above
SHP2-C SH2 = experiment: as above
MERTK = MERTK (UniProt Q12866); experiment: phosphorylation enrichment, bacterial display (enrichment ratio); higher = better substrate or ligand; peptides without Tyr show the background
EPHB2 = EPHB2 (UniProt P29323); experiment: as above
EPHB2, sequence (P29323 whole entry, looked up): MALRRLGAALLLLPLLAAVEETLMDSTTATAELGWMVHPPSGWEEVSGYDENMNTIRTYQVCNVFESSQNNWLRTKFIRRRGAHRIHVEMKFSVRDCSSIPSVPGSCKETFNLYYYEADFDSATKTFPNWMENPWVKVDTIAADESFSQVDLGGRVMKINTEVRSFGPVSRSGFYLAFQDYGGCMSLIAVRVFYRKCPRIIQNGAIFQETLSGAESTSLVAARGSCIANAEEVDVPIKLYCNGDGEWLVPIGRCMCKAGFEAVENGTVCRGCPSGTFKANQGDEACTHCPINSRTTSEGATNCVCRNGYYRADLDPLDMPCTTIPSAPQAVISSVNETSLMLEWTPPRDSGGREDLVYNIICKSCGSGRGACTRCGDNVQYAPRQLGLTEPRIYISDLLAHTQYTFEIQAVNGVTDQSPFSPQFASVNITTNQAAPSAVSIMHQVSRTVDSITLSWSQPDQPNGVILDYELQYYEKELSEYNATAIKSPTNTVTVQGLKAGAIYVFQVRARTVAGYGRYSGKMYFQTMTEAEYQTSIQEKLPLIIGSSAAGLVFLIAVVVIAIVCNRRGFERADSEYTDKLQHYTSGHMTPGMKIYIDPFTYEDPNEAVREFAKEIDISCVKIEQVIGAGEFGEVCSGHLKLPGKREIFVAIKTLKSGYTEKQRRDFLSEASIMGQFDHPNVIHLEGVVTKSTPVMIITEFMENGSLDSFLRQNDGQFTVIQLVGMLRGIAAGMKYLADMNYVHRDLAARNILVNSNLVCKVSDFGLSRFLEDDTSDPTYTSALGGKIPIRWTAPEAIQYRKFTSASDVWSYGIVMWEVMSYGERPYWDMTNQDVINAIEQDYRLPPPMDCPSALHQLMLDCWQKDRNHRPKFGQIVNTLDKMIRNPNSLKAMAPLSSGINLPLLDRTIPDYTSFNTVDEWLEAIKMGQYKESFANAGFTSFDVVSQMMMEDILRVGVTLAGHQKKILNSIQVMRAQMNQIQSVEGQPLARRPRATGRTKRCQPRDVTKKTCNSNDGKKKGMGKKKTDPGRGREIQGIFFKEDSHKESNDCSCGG

FGFR3 = FGFR3 (UniProt P22607); experiment: as above
FGFR3, sequence (P22607 whole entry, looked up): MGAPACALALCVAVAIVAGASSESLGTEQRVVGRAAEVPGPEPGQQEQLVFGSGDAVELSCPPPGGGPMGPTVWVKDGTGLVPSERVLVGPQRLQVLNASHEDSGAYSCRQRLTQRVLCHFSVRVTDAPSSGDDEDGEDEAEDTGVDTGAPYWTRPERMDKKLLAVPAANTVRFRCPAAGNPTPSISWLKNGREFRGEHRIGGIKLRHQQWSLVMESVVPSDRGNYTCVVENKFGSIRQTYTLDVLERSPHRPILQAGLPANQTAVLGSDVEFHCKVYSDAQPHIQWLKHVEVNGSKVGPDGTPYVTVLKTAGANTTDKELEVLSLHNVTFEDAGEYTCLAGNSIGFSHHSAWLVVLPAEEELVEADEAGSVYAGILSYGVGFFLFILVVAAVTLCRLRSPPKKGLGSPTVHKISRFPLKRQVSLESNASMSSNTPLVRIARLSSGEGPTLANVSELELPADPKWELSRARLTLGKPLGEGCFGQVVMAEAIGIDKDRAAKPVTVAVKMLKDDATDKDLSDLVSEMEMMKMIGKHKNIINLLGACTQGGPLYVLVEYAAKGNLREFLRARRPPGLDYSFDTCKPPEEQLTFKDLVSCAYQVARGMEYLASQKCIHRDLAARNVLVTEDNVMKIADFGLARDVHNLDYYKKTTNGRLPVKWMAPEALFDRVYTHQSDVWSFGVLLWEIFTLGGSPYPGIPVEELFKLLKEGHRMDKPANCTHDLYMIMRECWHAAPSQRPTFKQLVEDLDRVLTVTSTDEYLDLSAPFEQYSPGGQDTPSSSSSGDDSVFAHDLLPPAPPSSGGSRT

AncSZ = experiment: as above
Fyn = Fyn (UniProt P06241); experiment: as above
Fyn, sequence (P06241 whole entry, looked up): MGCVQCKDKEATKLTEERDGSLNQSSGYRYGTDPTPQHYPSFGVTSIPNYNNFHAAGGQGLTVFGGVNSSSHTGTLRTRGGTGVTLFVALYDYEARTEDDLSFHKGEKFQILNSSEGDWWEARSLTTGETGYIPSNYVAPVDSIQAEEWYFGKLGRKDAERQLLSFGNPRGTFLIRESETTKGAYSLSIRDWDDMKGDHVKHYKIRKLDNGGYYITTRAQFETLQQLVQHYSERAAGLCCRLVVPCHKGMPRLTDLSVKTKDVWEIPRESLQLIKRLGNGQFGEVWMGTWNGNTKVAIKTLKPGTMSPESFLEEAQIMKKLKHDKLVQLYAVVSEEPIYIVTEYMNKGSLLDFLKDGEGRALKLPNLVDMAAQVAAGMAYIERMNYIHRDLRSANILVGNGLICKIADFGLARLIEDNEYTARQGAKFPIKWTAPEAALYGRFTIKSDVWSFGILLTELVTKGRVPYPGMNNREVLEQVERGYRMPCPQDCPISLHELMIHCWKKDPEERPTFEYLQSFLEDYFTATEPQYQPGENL

Hck = Hck (UniProt P08631); experiment: as above
Fes = Fes (UniProt P07332); experiment: as above
Fes, sequence (P07332 whole entry, looked up): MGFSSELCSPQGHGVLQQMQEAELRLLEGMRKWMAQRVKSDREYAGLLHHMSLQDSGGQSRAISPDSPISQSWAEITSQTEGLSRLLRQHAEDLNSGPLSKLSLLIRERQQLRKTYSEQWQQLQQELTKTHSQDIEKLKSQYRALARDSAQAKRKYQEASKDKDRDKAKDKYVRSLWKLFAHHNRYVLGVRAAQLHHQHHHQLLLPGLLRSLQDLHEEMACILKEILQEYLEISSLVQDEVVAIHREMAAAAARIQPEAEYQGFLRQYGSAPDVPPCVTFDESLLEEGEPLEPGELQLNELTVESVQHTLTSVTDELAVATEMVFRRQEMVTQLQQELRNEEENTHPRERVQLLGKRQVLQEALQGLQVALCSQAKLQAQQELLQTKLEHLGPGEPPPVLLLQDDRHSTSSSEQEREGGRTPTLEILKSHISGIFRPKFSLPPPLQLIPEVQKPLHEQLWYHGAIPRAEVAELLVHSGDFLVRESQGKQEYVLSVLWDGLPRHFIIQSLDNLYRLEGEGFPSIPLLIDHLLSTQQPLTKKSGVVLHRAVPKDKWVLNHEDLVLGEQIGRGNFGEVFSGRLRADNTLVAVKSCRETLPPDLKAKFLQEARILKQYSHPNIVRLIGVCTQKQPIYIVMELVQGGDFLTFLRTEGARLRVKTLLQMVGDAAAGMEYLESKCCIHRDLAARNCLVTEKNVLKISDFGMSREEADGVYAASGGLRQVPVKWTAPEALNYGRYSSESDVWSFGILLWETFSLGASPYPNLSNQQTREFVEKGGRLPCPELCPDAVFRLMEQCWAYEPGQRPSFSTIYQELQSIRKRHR

EPHB1 = EPHB1 (UniProt P54762); experiment: as above
c-Src = experiment: as above
c-Abl (mouse) = experiment: as above
Jak2 = Jak2 (UniProt O60674); experiment: as above
Jak2, sequence (O60674 whole entry, looked up): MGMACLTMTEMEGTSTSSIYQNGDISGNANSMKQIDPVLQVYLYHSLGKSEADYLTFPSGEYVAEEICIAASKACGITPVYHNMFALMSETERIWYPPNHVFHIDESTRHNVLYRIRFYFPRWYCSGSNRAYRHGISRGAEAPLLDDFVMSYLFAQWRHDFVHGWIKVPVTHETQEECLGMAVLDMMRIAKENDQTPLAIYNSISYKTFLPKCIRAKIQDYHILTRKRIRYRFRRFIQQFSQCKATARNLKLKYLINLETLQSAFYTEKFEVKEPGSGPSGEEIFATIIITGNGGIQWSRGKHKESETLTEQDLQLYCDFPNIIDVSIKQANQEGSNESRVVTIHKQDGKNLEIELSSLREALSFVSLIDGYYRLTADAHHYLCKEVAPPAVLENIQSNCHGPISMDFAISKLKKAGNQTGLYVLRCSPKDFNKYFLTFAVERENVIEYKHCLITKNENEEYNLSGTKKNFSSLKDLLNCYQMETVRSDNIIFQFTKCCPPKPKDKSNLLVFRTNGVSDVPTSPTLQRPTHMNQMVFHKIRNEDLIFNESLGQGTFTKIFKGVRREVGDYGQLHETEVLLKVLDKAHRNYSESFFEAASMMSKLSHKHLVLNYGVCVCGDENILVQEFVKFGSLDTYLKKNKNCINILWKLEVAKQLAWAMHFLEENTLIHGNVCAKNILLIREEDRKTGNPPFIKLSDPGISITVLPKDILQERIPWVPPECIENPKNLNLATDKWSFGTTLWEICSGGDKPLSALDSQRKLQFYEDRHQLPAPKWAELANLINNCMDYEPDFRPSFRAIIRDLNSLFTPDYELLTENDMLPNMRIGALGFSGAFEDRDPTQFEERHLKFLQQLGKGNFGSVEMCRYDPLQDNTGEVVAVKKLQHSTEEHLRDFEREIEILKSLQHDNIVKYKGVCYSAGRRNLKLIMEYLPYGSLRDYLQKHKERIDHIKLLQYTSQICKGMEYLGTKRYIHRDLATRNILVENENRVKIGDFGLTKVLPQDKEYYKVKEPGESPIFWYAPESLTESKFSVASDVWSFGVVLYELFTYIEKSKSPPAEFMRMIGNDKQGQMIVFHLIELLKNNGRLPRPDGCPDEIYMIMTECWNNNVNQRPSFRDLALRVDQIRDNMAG

Fer (mouse) = experiment: as above
FGFR1 = FGFR1 (UniProt P11362); experiment: as above
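Throughout, for SH2 binding enrichment of the phosphorylated peptide, bacterial display: peptide library displayed on the E. coli surface as eCPX fusions, selected cells deep-sequenced, score is each peptide's frequency after selection divided by its frequency in the input.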
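Throughout, for phosphorylation enrichment, bacterial display: 11-residue human phosphosite peptides and single-mutation variants displayed on the E. coli surface, counted by deep sequencing, each peptide's frequency after selection divided by its frequency in the unselected input library; frequency after pTyr selection over input frequency; kinase dosed for 20-30% of maximal phosphorylation in three min.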

Grb2 SH2, sequence (P62993 whole entry, looked up): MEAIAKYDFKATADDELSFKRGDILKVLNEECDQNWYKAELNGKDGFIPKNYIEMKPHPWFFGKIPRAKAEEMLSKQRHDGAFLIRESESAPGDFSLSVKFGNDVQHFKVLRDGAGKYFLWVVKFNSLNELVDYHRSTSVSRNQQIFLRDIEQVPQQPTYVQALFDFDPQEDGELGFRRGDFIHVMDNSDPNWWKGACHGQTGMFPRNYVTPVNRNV

| Sequence | SH2 binding enrichment (c-Src SH2) | SH2 binding enrichment (Grb2 SH2) | SH2 binding enrichment (SHP2-C SH2) | phosphorylation enrichment (MERTK) | phosphorylation enrichment (EPHB2) | phosphorylation enrichment (FGFR3) | phosphorylation enrichment (AncSZ) | phosphorylation enrichment (Fyn) | phosphorylation enrichment (Hck) | phosphorylation enrichment (Fes) | phosphorylation enrichment (EPHB1) | phosphorylation enrichment (c-Src) | phosphorylation enrichment (c-Abl (mouse)) | phosphorylation enrichment (Jak2) | phosphorylation enrichment (Fer (mouse)) | phosphorylation enrichment (FGFR1) |
| --- | --- | --- | --- | --- | --- | --- | --- | --- | --- | --- | --- | --- | --- | --- | --- | --- |
| ESFCLYPPVPQ [CYP4B1_Y377_R375C] | 0.56 | 0.895 | 0.842 | 0.447 | 0.595 | 0.647 | 0.874 | 0.459 | 0.484 | 1.12 | 0.805 | 0.477 | 0.739 | 0.906 | 0.582 | 0.539 |
| QITQVYGFYHE [PPP2CA_Y127_D131H] | 1.05 | 1.04 | 1.04 | 3.47 | 0.877 | 0.753 | 0.938 | 10.1 | 7.96 | 1.07 | 0.66 | 8.14 | 0.67 | 1.21 | 0.872 | 0.614 |
| TNQVIYLNPPI [DYNC1H1_Y970] | 0.459 | 0.819 | 0.99 | 3.71 | 4.73 | 2.94 | 0.849 | 0.62 | 1.45 | 0.77 | 7.69 | 0.743 | 13.9 | 0.706 | 0.473 | 3.51 |
| INNIDYYKKTT [FGFR2_Y656] | 0.415 | 0.743 | 0.364 | 0.501 | 0.506 | 0.473 | 0.808 | 0.425 | 0.486 | 0.876 | 0.461 | 0.426 | 0.627 | 0.618 | 0.334 | 0.524 |
| TQTPPYVKKHP [LARP1B_Y457] | 0.629 | 1.01 | 0.821 | 0.466 | 0.39 | 0.521 | 0.677 | 0.459 | 0.357 | 0.624 | 0.458 | 0.488 | 0.514 | 0.593 | 0.439 | 0.34 |
| REHTVYGEPRK [MAGEA4_Y240] | 0.443 | 0.765 | 0.54 | 0.492 | 0.687 | 0.684 | 0.716 | 0.869 | 0.903 | 0.851 | 0.588 | 0.599 | 1.03 | 0.674 | 0.52 | 0.664 |
| ATYRGYDSDNP [MMUT_Y146_H143Y] | 0.526 | 0.862 | 0.562 | 0.365 | 0.431 | 0.543 | 0.742 | 0.528 | 0.444 | 0.751 | 0.427 | 0.626 | 0.476 | 0.658 | 0.409 | 0.453 |
| FRQLPYCPSVE [CTNND2_Y508_Q507P_YF] | 0.458 | 0.722 | 0.472 | 0.486 | 0.748 | 1.2 | 1.25 | 0.538 | 0.776 | 1.39 | 0.647 | 0.499 | 0.837 | 1.08 | 0.603 | 0.526 |
